B1: GTGCAC_site9462 (dsDNA)
DNA 1: AACTGTACAATTTTTGTGCACAATAATTATTAATAT
DNA 2: ATATTAATAATTATTGTGCACAAAAATTGTACAGTT
B2: GTGCAC_site10309 (dsDNA)
DNA 1: GTTAATTTTTGTATAGTGCAAAAATATAATAGTATG
DNA 2: CATACTATTATATTTTTGCACTATACAAAAATTAAC
B3: GTGCAC_site9782 (dsDNA)
DNA 1: AAAATATAAATTCATGTGCACATATATATTTTGTTA
DNA 2: TAACAAAATATATATGTGCACATGAATTTATATTTT
B4: GTGCAC_site9543 (dsDNA)
DNA 1: CAATATTTGTTATGGGTGCAAACCGCATATATATAA
DNA 2: TTATATATATGCGGTTTGCACCCATAACAAATATTG
B5: GTGCAC_site9428 (dsDNA)
DNA 1: AAATAGTTGTTATGGGTGCAAACCACATATATATAA
DNA 2: TTATATATATGTGGTTTGCACCCATAACAACTATTT
B6: GTGCAC_site10217 (dsDNA)
DNA 1: ATATATTTTTGTAGTGTGCACGTTTATATGGTGAAA
DNA 2: TTTCACCATATAAACGTGCACACTACAAAAATATAT
B7: GTGCAC_site10675 (dsDNA)
DNA 1: GTAGTTATATTAAGGGTGCTTAATTAGATTAAACAA
DNA 2: TTGTTTAATCTAATTAAGCACCCTTAATATAACTAC
B8: GTGCAC_site10687 (dsDNA)
DNA 1: TATATATATTATATAGTGCATTGAAGAAGGGGATTT
DNA 2: AAATCCCCTTCTTCAATGCACTATATAATATATATA
B9: GTGCAC_site9746 (dsDNA)
DNA 1: TATAATTAATTAGAAGTGCATTAGGTAACAACTGTC
DNA 2: GACAGTTGTTACCTAATGCACTTCTAATTAATTATA
B10: GTGCAC_site9926 (dsDNA)
DNA 1: GCAGCAGCATTTTCAGTGCATTATTATATTGTTCAT
DNA 2: ATGAACAATATAATAATGCACTGAAAATGCTGCTGC
B11: GTGCAC_site9804 (dsDNA)
DNA 1: TCAAAAGAATAATTGGTGCAAATTATATAATATAAT
DNA 2: ATTATATTATATAATTTGCACCAATTATTCTTTTGA
B12: GTGCAC_site10469 (dsDNA)
DNA 1: ATTTTCACCTGAACGGTGCATATTTAATTTTAGGTT
DNA 2: AACCTAAAATTAAATATGCACCGTTCAGGTGAAAAT
B13: GTGCAC_site10615 (dsDNA)
DNA 1: ATTTTTTTTGTAAAAGTGCATATATATATATATATA
DNA 2: TATATATATATATATATGCACTTTTACAAAAAAAAT
B14: GTGCAC_site10026 (dsDNA)
DNA 1: ATATAAGTATTTTGAATGCACTTTCTTTTTTTTTTT
DNA 2: AAAAAAAAAAAGAAAGTGCATTCAAAATACTTATAT
B15: GTGCAC_site10317 (dsDNA)
DNA 1: TTATATTTTCTCCGCGTGCACATATGTATACTATAC
DNA 2: GTATAGTATACATATGTGCACGCGGAGAAAATATAA
B16: GTGCAC_site10220 (dsDNA)
DNA 1: CATATAAAAAATATGGTGCAGTTTTTTTTTTTTTTT
DNA 2: AAAAAAAAAAAAAAACTGCACCATATTTTTTATATG
B17: GTGCAC_site9494 (dsDNA)
DNA 1: TTGTTTTTAATATCGGTGCAATGGAAAGAAAAGAAG
DNA 2: CTTCTTTTCTTTCCATTGCACCGATATTAAAAACAA
B18: GTGCAC_site10204 (dsDNA)
DNA 1: GGAAAATACATTCCAGTGCATTAATTTATTCAACGT
DNA 2: ACGTTGAATAAATTAATGCACTGGAATGTATTTTCC
B19: GTGCAC_site9467 (dsDNA)
DNA 1: AAATAATGAAACAAAGTGCATAAAAATATACATATA
DNA 2: TATATGTATATTTTTATGCACTTTGTTTCATTATTT
B20: GTGCAC_site10781 (dsDNA)
DNA 1: ACATTTTTGGTTTTAGTGCAATATGAATTATTTTAT
DNA 2: ATAAAATAATTCATATTGCACTAAAACCAAAAATGT
B21: GTGCAC_site10102 (dsDNA)
DNA 1: TATATTTATATATTAGTGCACTTTTTGTTAATTTTT
DNA 2: AAAAATTAACAAAAAGTGCACTAATATATAAATATA
B22: GTGCAC_site10266 (dsDNA)
DNA 1: TCTTAAAATATATAGGTGCAAAAAAAAAAAAAAAAA
DNA 2: TTTTTTTTTTTTTTTTTGCACCTATATATTTTAAGA
B23: GTGCAC_site10322 (dsDNA)
DNA 1: TTTTTTTTTTTGTGAGTGCACGTATGAAGAGAAAAA
DNA 2: TTTTTCTCTTCATACGTGCACTCACAAAAAAAAAAA
B24: GTGCAC_site9938 (dsDNA)
DNA 1: GAATTATAAATTATAGTGCATAAAATTATGGCATAA
DNA 2: TTATGCCATAATTTTATGCACTATAATTTATAATTC
B25: GTGCAC_site10697 (dsDNA)
DNA 1: AATATTTCTCATTTTGTGCACTGAAAAATGTAATAT
DNA 2: ATATTACATTTTTCAGTGCACAAAATGAGAAATATT
B26: GTGCAC_site10398 (dsDNA)
DNA 1: AAATACTTATTCGTGGTGCAACAATTTTAAAAATTA
DNA 2: TAATTTTTAAAATTGTTGCACCACGAATAAGTATTT
B27: GTGCAC_site10289 (dsDNA)
DNA 1: TTTAAAATACAGAAGGTGCATTTAACATATTTGTAT
DNA 2: ATACAAATATGTTAAATGCACCTTCTGTATTTTAAA
B28: GTGCAC_site10494 (dsDNA)
DNA 1: AATATATAGGAAAAAGTGCAATAAATGAACAAAATA
DNA 2: TATTTTGTTCATTTATTGCACTTTTTCCTATATATT
B29: GTGCAC_site9648 (dsDNA)
DNA 1: ATAATTTCACAAATAGTGCAAAAATTAGTAAGAATA
DNA 2: TATTCTTACTAATTTTTGCACTATTTGTGAAATTAT
B30: GTGCAC_site9995 (dsDNA)
DNA 1: AAAGGAAAAATCCAAGTGCATTATTATTTTCACAAA
DNA 2: TTTGTGAAAATAATAATGCACTTGGATTTTTCCTTT
B31: GTGCAC_site10692 (dsDNA)
DNA 1: ATTATTTATATTATGGTGCATAATTTTGGGTTTCTT
DNA 2: AAGAAACCCAAAATTATGCACCATAATATAAATAAT
B32: GTGCAC_site9626 (dsDNA)
DNA 1: TTTATTAATAAAAAGGTGCAATCAGGAAAAATTATC
DNA 2: GATAATTTTTCCTGATTGCACCTTTTTATTAATAAA
B33: GTGCAC_site10240 (dsDNA)
DNA 1: CTTTTAGAATAATCAGTGCAAAAAAAAAAAAAAAAA
DNA 2: TTTTTTTTTTTTTTTTTGCACTGATTATTCTAAAAG
B34: GTGCAC_site10062 (dsDNA)
DNA 1: TCTATTTTCTTATGAATGCACTAATTTATAAAACGT
DNA 2: ACGTTTTATAAATTAGTGCATTCATAAGAAAATAGA
B35: GTGCAC_site9974 (dsDNA)
DNA 1: ATATGAAGTTATATAGTGCACATGTACAACCAAATC
DNA 2: GATTTGGTTGTACATGTGCACTATATAACTTCATAT
B36: GTGCAC_site9779 (dsDNA)
DNA 1: TTTTGTTATAATAAAGTGCATTTAGTCGGGTTACAA
DNA 2: TTGTAACCCGACTAAATGCACTTTATTATAACAAAA
B37: GTGCAC_site9423 (dsDNA)
DNA 1: ACACATACACATTAGGTGCATATATTTCAATATTAC
DNA 2: GTAATATTGAAATATATGCACCTAATGTGTATGTGT
B38: GTGCAC_site10268 (dsDNA)
DNA 1: TTTTTTGTTATTGGCGTGCACATATCCATTTATAGT
DNA 2: ACTATAAATGGATATGTGCACGCCAATAACAAAAAA
B39: GTGCAC_site9491 (dsDNA)
DNA 1: AATAATAAAATAAAAGTGCATTAATTATAATTCTTT
DNA 2: AAAGAATTATAATTAATGCACTTTTATTTTATTATT
B40: GTGCAC_site9873 (dsDNA)
DNA 1: CCCTCCCCATGTTTAGTGCAAAAATATTTGAAATTG
DNA 2: CAATTTCAAATATTTTTGCACTAAACATGGGGAGGG
B41: GTGCAC_site10757 (dsDNA)
DNA 1: TATTAATTTCGGGAAGTGCATTATGTTTATAGAATA
DNA 2: TATTCTATAAACATAATGCACTTCCCGAAATTAATA
B42: GTGCAC_site9417 (dsDNA)
DNA 1: TAATATTATTTTTCAGTGCAATATAACCTTAGAATT
DNA 2: AATTCTAAGGTTATATTGCACTGAAAAATAATATTA
B43: GTGCAC_site10474 (dsDNA)
DNA 1: TTTTTTGTTACAACAGTGCAAAAAAACCTTAATGTT
DNA 2: AACATTAAGGTTTTTTTGCACTGTTGTAACAAAAAA
B44: GTGCAC_site9508 (dsDNA)
DNA 1: TAATAAAAAGTTGAGGTGCATATAGAGTTCTTCTTT
DNA 2: AAAGAAGAACTCTATATGCACCTCAACTTTTTATTA

The binders below were run against AP2-I D3 (Plasmodium falciparum, UniProt Q8IJW6 910-1027) (assay: gcPBM; about 25 ug protein; PBS, 1% milk, 0.2 mg/ml BSA, salmon testes DNA, 0.03% Triton X-100). Settings: tags: N-terminal GST (pGEX-4T-1), kept; label: surface-attached array probe.
B1 was tested, and the binding signal was 11.3 ln median PBM intensity, better of two orientations.
In the case of B2, the binding signal is reported as 10.6 ln median PBM intensity, better of two orientations.
For B3, the binding signal was 9.03 ln median PBM intensity, better of two orientations.
In the case of B4, the binding signal is reported as 10.3 ln median PBM intensity, better of two orientations.
In the case of B5, the binding signal is reported as 10.2 ln median PBM intensity, better of two orientations.
For B6, the binding signal was 10.5 ln median PBM intensity, better of two orientations.
B7 was tested, and the binding signal was 10.8 ln median PBM intensity, better of two orientations.
With B8 the binding signal was 11.1 ln median PBM intensity, better of two orientations.
With B9 the binding signal was 11.5 ln median PBM intensity, better of two orientations.
For B10, the binding signal was 11.6 ln median PBM intensity, better of two orientations.
In the case of B11, the binding signal is reported as 10.8 ln median PBM intensity, better of two orientations.
In the case of B12, the binding signal is reported as 10 ln median PBM intensity, better of two orientations.
With B13 the binding signal was 10.5 ln median PBM intensity, better of two orientations.
With B14 the binding signal was 10.5 ln median PBM intensity, better of two orientations.
With B15 the binding signal was 10.2 ln median PBM intensity, better of two orientations.
In the case of B16, the binding signal is reported as 10.3 ln median PBM intensity, better of two orientations.
B17 was tested, and the binding signal was 10.2 ln median PBM intensity, better of two orientations.
In the case of B18, the binding signal is reported as 11.8 ln median PBM intensity, better of two orientations.
For B19, the binding signal was 10.6 ln median PBM intensity, better of two orientations.
For B20, the binding signal was 11 ln median PBM intensity, better of two orientations.
B21 was tested, and the binding signal was 11.8 ln median PBM intensity, better of two orientations.
In the case of B22, the binding signal is reported as 10.9 ln median PBM intensity, better of two orientations.
In the case of B23, the binding signal is reported as 11.2 ln median PBM intensity, better of two orientations.
B24 was tested, and the binding signal was 10.8 ln median PBM intensity, better of two orientations.
In the case of B25, the binding signal is reported as 11 ln median PBM intensity, better of two orientations.
For B26, the binding signal was 10.4 ln median PBM intensity, better of two orientations.
With B27 the binding signal was 11.6 ln median PBM intensity, better of two orientations.
For B28, the binding signal was 11.3 ln median PBM intensity, better of two orientations.
With B29 the binding signal was 10.3 ln median PBM intensity, better of two orientations.
B30 was tested, and the binding signal was 11.4 ln median PBM intensity, better of two orientations.
With B31 the binding signal was 11.6 ln median PBM intensity, better of two orientations.
With B32 the binding signal was 10.7 ln median PBM intensity, better of two orientations.
B33 was tested, and the binding signal was 10.1 ln median PBM intensity, better of two orientations.
In the case of B34, the binding signal is reported as 10.8 ln median PBM intensity, better of two orientations.
In the case of B35, the binding signal is reported as 11.4 ln median PBM intensity, better of two orientations.
B36 was tested, and the binding signal was 10.4 ln median PBM intensity, better of two orientations.
With B37 the binding signal was 10.6 ln median PBM intensity, better of two orientations.
With B38 the binding signal was 10.4 ln median PBM intensity, better of two orientations.
For B39, the binding signal was 11.9 ln median PBM intensity, better of two orientations.
In the case of B40, the binding signal is reported as 10.9 ln median PBM intensity, better of two orientations.
For B41, the binding signal was 11.7 ln median PBM intensity, better of two orientations.
For B42, the binding signal was 11.3 ln median PBM intensity, better of two orientations.
For B43, the binding signal was 10.2 ln median PBM intensity, better of two orientations.
In the case of B44, the binding signal is reported as 10.5 ln median PBM intensity, better of two orientations.

Source: publication PMC11417369, “DNA sequence and chromatin differentiate sequence-specific transcription factor binding in the human malaria parasite Plasmodium falciparum”
